The source of these data is paper PMC8904551.

For assay [1], the target named is β2 adrenergic receptor, the receptor part of the β2AR-Spep SPASM sensor (UniProt P07550). The assay is described as follows: FRET or BRET; steady-state ΔFRET of the β2AR-Spep SPASM sensor in native HEK293T membranes; 100 µM clenbuterol with 30 µM soluble Qpep (Gαq peptide), 5 min, 25 °C, FRET buffer; both partners on one chain. On the technique in general: BRET reads energy transfer from a luciferase to a nearby fluorophore.

Assay [2] has the same target. Nature of the assay: FRET or BRET; steady-state ΔFRET of the β2AR-Spep SPASM sensor in native HEK293T membranes; 100 µM isoproterenol with 30 µM soluble Qpep (Gαq peptide), 5 min, 25 °C, FRET buffer; both partners on one chain.
Assay [3] has the same target. Nature of the assay: FRET or BRET; stopped-flow decay of the FRET ratio (mCit/mCer) of the β2AR-Spep SPASM sensor in native HEK293T membranes, preincubated with 100 µM isoproterenol and quenched with 10 µM Nb6B9; FRET buffer; triple exponential fit with one decay constrained to the decay without Nb6B9; both partners on one chain.
For assay [4] the target is unchanged. Nature of the assay: FRET or BRET; steady-state ΔFRET of the β2AR-Spep SPASM sensor in native HEK293T membranes; 100 µM clenbuterol (partial agonist) against buffer, 5 min, 25 °C, FRET buffer; both partners on one chain.
Assay [5] has as its target N-terminally biotinylated Gαs-peptide (bio-Spep). The assay is described as follows: pull-down; affinity sequestration: β2AR-mCer native membranes with 100 µM isoproterenol and 30 µM bio-Spep, 5 min at room temperature, then streptavidin Dynabeads for 5 min; fraction bound = 1 - fraction of mCerulean counts in the supernatant; FRET buffer + 0.1 mg/mL BSA.
Assay [6] has the same target. The assay is described as follows: pull-down; affinity sequestration as above, with 10 µM Qpep (Gαq peptide) added to the 30 µM bio-Spep; 100 µM isoproterenol; streptavidin Dynabeads; FRET buffer + 0.1 mg/mL BSA.

“Gαs-peptide (Spep), the 27 amino acid Gα C-terminal peptide of the β2AR-Spep SPASM sensor” showed a fold increase of the interaction (ΔFRET) with Qpep against without, clenbuterol in assay [1] of 5 fold. In addition, in assay [2], the fold increase of the interaction (ΔFRET) with Qpep against without, isoproterenol was found to be 2 fold. Moreover, in assay [3], the koff, strong interaction state (slow decay) was 0.006 s⁻¹ and the koff, weak interaction state (fast decay) was 0.3 s⁻¹. The same substance registered a fold weaker interaction (ΔFRET) with clenbuterol than with isoproterenol in assay [4] of 6 fold.

As to “β2AR-mCerulean (from UniProt P07550 1-413) (receptor)”, the fraction of receptor bound in assay [5] is 5%. For the same substance, the fraction of receptor bound, with 10 µM Qpep in assay [6] worked out at 17%.
